# Assay: turbidity assay; turbidity at 600 nm against protein concentration; 20 mM Tris-HCl, 150 mM NaCl pH 8.0, 20% (w/v) PEG2k; 96-well plate, quadruplicate; self-assembly into condensates
# Details: other: turbidity assay
row,Substance,inflection of turbidity against protein concentration
1,PduP encapsulation peptide with its native linker fused to the N-terminus of mNeonGreen,33.1 µM ± 0.4 µM
2,Three serial repeats of the PduP EP and its native linker fused to the N-terminus of mNeonGreen,19.7 µM
3,Two serial repeats of the PduP EP and its native linker fused to the N-terminus of mNeonGreen,15.5 µM

# Reference: article PMC12339742
